# Source: the Human Domainome abundance scans (Beltran et al. 2025)
# ± gives the uncertainty stated by the source.
# B1: Retinoic acid receptor RXR-alpha, residues 132 to 208; numbered along this chain, P19793 (parent)
# chain: KHICAICGDRSSGKHYGVYSCEGCKGFFKRTVRKDLTYTCRDNKDCLIDKRQRNRCQYCRYQKCLAMGMKREAVQEE
# B2: Proto-oncogene vav, residues 782 to 842; numbered along this chain, P15498 (parent)
# chain: KYFGTAKARYDFCARDRSELSLKEGDIIKILNKKGQQGWWRGEIYGRVGWFPANYVEEDYS
# Variants of: B1
# Assay: abundance fitness (aPCA) (normalised: wild type 0, dead -1); higher = more abundant; growth selection in yeast, the domain comes from the species named
# Details: Homo sapiens
row,Variant,abundance fitness
1,KNICAICGDRSSGKHYGVYSCEGCKGFFKRTVRKDLTYTCRDNKDCLIDKRQRNRCQYCRYQKCLAMGMKREAVQEE [H2N],-0.001 ± 0.062
2,KPICAICGDRSSGKHYGVYSCEGCKGFFKRTVRKDLTYTCRDNKDCLIDKRQRNRCQYCRYQKCLAMGMKREAVQEE [H2P],-0.453 ± 0.063
3,KWICAICGDRSSGKHYGVYSCEGCKGFFKRTVRKDLTYTCRDNKDCLIDKRQRNRCQYCRYQKCLAMGMKREAVQEE [H2W],-0.109 ± 0.044
4,KYICAICGDRSSGKHYGVYSCEGCKGFFKRTVRKDLTYTCRDNKDCLIDKRQRNRCQYCRYQKCLAMGMKREAVQEE [H2Y],-0.008 ± 0.067
5,KDICAICGDRSSGKHYGVYSCEGCKGFFKRTVRKDLTYTCRDNKDCLIDKRQRNRCQYCRYQKCLAMGMKREAVQEE [H2D],0.072 ± 0.061
6,KVICAICGDRSSGKHYGVYSCEGCKGFFKRTVRKDLTYTCRDNKDCLIDKRQRNRCQYCRYQKCLAMGMKREAVQEE [H2V],-0.142 ± 0.042
7,KTICAICGDRSSGKHYGVYSCEGCKGFFKRTVRKDLTYTCRDNKDCLIDKRQRNRCQYCRYQKCLAMGMKREAVQEE [H2T],-0.026 ± 0.052
8,KLICAICGDRSSGKHYGVYSCEGCKGFFKRTVRKDLTYTCRDNKDCLIDKRQRNRCQYCRYQKCLAMGMKREAVQEE [H2L],-0.041 ± 0.037
9,KKICAICGDRSSGKHYGVYSCEGCKGFFKRTVRKDLTYTCRDNKDCLIDKRQRNRCQYCRYQKCLAMGMKREAVQEE [H2K],0.096 ± 0.047
10,KQICAICGDRSSGKHYGVYSCEGCKGFFKRTVRKDLTYTCRDNKDCLIDKRQRNRCQYCRYQKCLAMGMKREAVQEE [H2Q],-0.031 ± 0.043
11,KGICAICGDRSSGKHYGVYSCEGCKGFFKRTVRKDLTYTCRDNKDCLIDKRQRNRCQYCRYQKCLAMGMKREAVQEE [H2G],-0.005 ± 0.031
12,KRICAICGDRSSGKHYGVYSCEGCKGFFKRTVRKDLTYTCRDNKDCLIDKRQRNRCQYCRYQKCLAMGMKREAVQEE [H2R],-0.101 ± 0.032
13,KMICAICGDRSSGKHYGVYSCEGCKGFFKRTVRKDLTYTCRDNKDCLIDKRQRNRCQYCRYQKCLAMGMKREAVQEE [H2M],0.078 ± 0.054

# Variants of: B2
# Assay: as above
# Details: Homo sapiens
row,Variant,abundance fitness
1,KYFGTAKARYDFCARDRSELSLKEGDIIKILNKKGQQGWWRGEIYGRVGWFPANYVEEDYA [S61A],-0.073 ± 0.18
2,KYFGTAKARYDFCARDRSELSLKEGDIIKILNKKGQQGWWRGEIYGRVGWFPANYVEEDYI [S61I],-0.2 ± 0.35
3,KYFGTAKARYDFCARDRSELSLKEGDIIKILNKKGQQGWWRGEIYGRVGWFPANYVEEDYG [S61G],-0.194 ± 0.17
4,KYFGTAKARYDFCARDRSELSLKEGDIIKILNKKGQQGWWRGEIYGRVGWFPANYVEEDYL [S61L],-0.095 ± 0.12
5,KYFGTAKARYDFCARDRSELSLKEGDIIKILNKKGQQGWWRGEIYGRVGWFPANYVEEDYW [S61W],-0.084 ± 0.17
6,KYFGTAKARYDFCARDRSELSLKEGDIIKILNKKGQQGWWRGEIYGRVGWFPANYVEEDYP [S61P],0.232 ± 0.15
7,KYFGTAKARYDFCARDRSELSLKEGDIIKILNKKGQQGWWRGEIYGRVGWFPANYVEEDYE [S61E],-0.235 ± 0.17
8,KYFGTAKARYDFCARDRSELSLKEGDIIKILNKKGQQGWWRGEIYGRVGWFPANYVEEDYK [S61K],-0.196 ± 0.25
9,KYFGTAKARYDFCARDRSELSLKEGDIIKILNKKGQQGWWRGEIYGRVGWFPANYVEEDYC [S61C],0.071 ± 0.18
10,KYFGTAKARYDFCARDRSELSLKEGDIIKILNKKGQQGWWRGEIYGRVGWFPANYVEEDYR [S61R],-0.011 ± 0.15
11,KYFGTAKARYDFCARDRSELSLKEGDIIKILNKKGQQGWWRGEIYGRVGWFPANYVEEDYH [S61H],0.019 ± 0.3
12,KYFGTAKARYDFCARDRSELSLKEGDIIKILNKKGQQGWWRGEIYGRVGWFPANYVEEDYV [S61V],-0.216 ± 0.15
13,KYFGTAKARYDFCARDRSELSLKEGDIIKILNKKGQQGWWRGEIYGRVGWFPANYVEEDYF [S61F],-0.28 ± 0.16
14,KYFGTAKARYDFCARDRSELSLKEGDIIKILNKKGQQGWWRGEIYGRVGWFPANYVEEDYD [S61D],-0.208 ± 0.4
15,KYFGTAKARYDFCARDRSELSLKEGDIIKILNKKGQQGWWRGEIYGRVGWFPANYVEEDLS [Y60L],0.062 ± 0.057
16,KYFGTAKARYDFCARDRSELSLKEGDIIKILNKKGQQGWWRGEIYGRVGWFPANYVEEDKS [Y60K],-0.122 ± 0.19
17,KYFGTAKARYDFCARDRSELSLKEGDIIKILNKKGQQGWWRGEIYGRVGWFPANYVEEDIS [Y60I],-0.024 ± 0.12
18,KYFGTAKARYDFCARDRSELSLKEGDIIKILNKKGQQGWWRGEIYGRVGWFPANYVEEDPS [Y60P],-0.183 ± 0.11
19,KYFGTAKARYDFCARDRSELSLKEGDIIKILNKKGQQGWWRGEIYGRVGWFPANYVEEDSS [Y60S],0.016 ± 0.071
20,KYFGTAKARYDFCARDRSELSLKEGDIIKILNKKGQQGWWRGEIYGRVGWFPANYVEEDQS [Y60Q],-0.097 ± 0.12
21,KYFGTAKARYDFCARDRSELSLKEGDIIKILNKKGQQGWWRGEIYGRVGWFPANYVEEDRS [Y60R],-0.005 ± 0.073
22,KYFGTAKARYDFCARDRSELSLKEGDIIKILNKKGQQGWWRGEIYGRVGWFPANYVEEDMS [Y60M],0.009 ± 0.1
23,KYFGTAKARYDFCARDRSELSLKEGDIIKILNKKGQQGWWRGEIYGRVGWFPANYVEEDHS [Y60H],0.027 ± 0.17
24,KYFGTAKARYDFCARDRSELSLKEGDIIKILNKKGQQGWWRGEIYGRVGWFPANYVEEDWS [Y60W],-0.169 ± 0.12
25,KYFGTAKARYDFCARDRSELSLKEGDIIKILNKKGQQGWWRGEIYGRVGWFPANYVEEDVS [Y60V],0.134 ± 0.098
